Sequences and labels used below:
B1: SEQ ID NO: 14 (peptide)
peptide: cyclo([Bip(4'-COOH)][4Pal][Phe(4-COOH)]G[Pro(cis-4-F)][Trp(βS-Me,4-F)][Aib]EW[Aib][Ala(pyrimidin-5-yl)]Q[Dab]G[dPro(4R-(4-pyridylmethyl))])
SMILES: C[C@@H](c1c[nH]c2cccc(F)c12)[C@@H]1NC(=O)[C@@H]2C[C@H](F)CN2C(=O)CNC(=O)[C@H](Cc2ccc(C(=O)O)cc2)NC(=O)[C@H](Cc2ccncc2)NC(=O)[C@H](Cc2ccc(-c3ccc(C(=O)O)cc3)cc2)NC(=O)[C@H]2C[C@@H](Cc3ccncc3)CN2C(=O)CNC(=O)[C@H](CCN)NC(=O)[C@H](CCC(N)=O)NC(=O)[C@H](Cc2cncnc2)NC(=O)C(C)(C)NC(=O)[C@H](Cc2c[nH]c3ccccc23)NC(=O)[C@H](CCC(=O)O)NC(=O)C(C)(C)NC1=O
B2: SEQ ID NO: 119 (peptide)
peptide: cyclo([Bip(4'-COOH)][4Pal][Phe(4-COOH)]G[Pro(cis-4-F)][Trp(βS-Me,4-F)][Aib]EW[Aib][Ala(piperidin-4-yl)]Q[Dab]G[dPro(4R-Bzl(4-F))])
SMILES: C[C@@H](c1c[nH]c2cccc(F)c12)[C@@H]1NC(=O)[C@@H]2C[C@H](F)CN2C(=O)CNC(=O)[C@H](Cc2ccc(C(=O)O)cc2)NC(=O)[C@H](Cc2ccncc2)NC(=O)[C@H](Cc2ccc(-c3ccc(C(=O)O)cc3)cc2)NC(=O)[C@H]2C[C@@H](Cc3ccc(F)cc3)CN2C(=O)CNC(=O)[C@H](CCN)NC(=O)[C@H](CCC(N)=O)NC(=O)[C@H](CC2CCNCC2)NC(=O)C(C)(C)NC(=O)[C@H](Cc2c[nH]c3ccccc23)NC(=O)[C@H](CCC(=O)O)NC(=O)C(C)(C)NC1=O
B3: SEQ ID NO: 117 (peptide)
peptide: cyclo([Phe(4-(cis-4-COOH-cHex))][4Pal][Phe(4-COOH)]G[Pro(cis-4-F)][Trp(βS-Me,4-F)][Aib]EW[Aib][Ala(2-pyrazinyl)]Q[Dab]G[dPro(4R-Bzl(4-F))])
SMILES: C[C@@H](c1c[nH]c2cccc(F)c12)[C@@H]1NC(=O)[C@@H]2C[C@H](F)CN2C(=O)CNC(=O)[C@H](Cc2ccc(C(=O)O)cc2)NC(=O)[C@H](Cc2ccncc2)NC(=O)[C@H](Cc2ccc([C@H]3CC[C@@H](C(=O)O)CC3)cc2)NC(=O)[C@H]2C[C@@H](Cc3ccc(F)cc3)CN2C(=O)CNC(=O)[C@H](CCN)NC(=O)[C@H](CCC(N)=O)NC(=O)[C@H](Cc2cnccn2)NC(=O)C(C)(C)NC(=O)[C@H](Cc2c[nH]c3ccccc23)NC(=O)[C@H](CCC(=O)O)NC(=O)C(C)(C)NC1=O
B4: SEQ ID NO: 118 (peptide)
peptide: cyclo([Bip(4'-COOH)][4Pal][Phe(4-COOH)]G[Pro(cis-4-F)][Trp(βS-Me,4-F)][Aib]EW[Aib][Ala(4-THP)]Q[Dab]G[dPro(4R-Bzl(4-F))])
SMILES: C[C@@H](c1c[nH]c2cccc(F)c12)[C@@H]1NC(=O)[C@@H]2C[C@H](F)CN2C(=O)CNC(=O)[C@H](Cc2ccc(C(=O)O)cc2)NC(=O)[C@H](Cc2ccncc2)NC(=O)[C@H](Cc2ccc(-c3ccc(C(=O)O)cc3)cc2)NC(=O)[C@H]2C[C@@H](Cc3ccc(F)cc3)CN2C(=O)CNC(=O)[C@H](CCN)NC(=O)[C@H](CCC(N)=O)NC(=O)[C@H](CC2CCOCC2)NC(=O)C(C)(C)NC(=O)[C@H](Cc2c[nH]c3ccccc23)NC(=O)[C@H](CCC(=O)O)NC(=O)C(C)(C)NC1=O
B5: SEQ ID NO: 12 (peptide)
peptide: cyclo([3AzaTyrEtNAc][4Pal][Phe(4-COOH)]G[Pro(cis-4-F)][Trp(βS-Me,4-F)][Aib]EW[Aib][Ala(pyrimidin-5-yl)]Q[Dab]G[dPro(4R-Bzl(4-F))])
SMILES: CC(=O)NCCOc1ccc(C[C@@H]2NC(=O)[C@H]3C[C@@H](Cc4ccc(F)cc4)CN3C(=O)CNC(=O)[C@H](CCN)NC(=O)[C@H](CCC(N)=O)NC(=O)[C@H](Cc3cncnc3)NC(=O)C(C)(C)NC(=O)[C@H](Cc3c[nH]c4ccccc34)NC(=O)[C@H](CCC(=O)O)NC(=O)C(C)(C)NC(=O)[C@H]([C@@H](C)c3c[nH]c4cccc(F)c34)NC(=O)[C@@H]3C[C@H](F)CN3C(=O)CNC(=O)[C@H](Cc3ccc(C(=O)O)cc3)NC(=O)[C@H](Cc3ccncc3)NC2=O)cn1
B6: SEQ ID NO: 112 (peptide)
peptide: cyclo([Bip(4'-COOH)][Ala(1-bicyclo(1.1.1)pentyl)][Phe(4-COOH)]G[Pro(cis-4-F)][Trp(βS-Me,4-F)][Aib]SW[d(αMeS)][Ala(pyrimidin-5-yl)]Q[Dab]G[dPro(4R-(4-pyridylmethyl))])
SMILES: C[C@@H](c1c[nH]c2cccc(F)c12)[C@@H]1NC(=O)[C@@H]2C[C@H](F)CN2C(=O)CNC(=O)[C@H](Cc2ccc(C(=O)O)cc2)NC(=O)[C@H](CC23CC(C2)C3)NC(=O)[C@H](Cc2ccc(-c3ccc(C(=O)O)cc3)cc2)NC(=O)[C@H]2C[C@@H](Cc3ccncc3)CN2C(=O)CNC(=O)[C@H](CCN)NC(=O)[C@H](CCC(N)=O)NC(=O)[C@H](Cc2cncnc2)NC(=O)[C@@](C)(CO)NC(=O)[C@H](Cc2c[nH]c3ccccc23)NC(=O)[C@H](CO)NC(=O)C(C)(C)NC1=O
B7: SEQ ID NO: 13 (peptide)
peptide: cyclo([Bip(4'-COOH)][Ala(1-bicyclo(1.1.1)pentyl)][Phe(4-COOH)]G[Pro(cis-4-F)][Trp(βS-Me,4-F)][Aib]EW[Aib][Ala(pyrimidin-5-yl)]Q[Dab]G[dPro(4R-Bzl(4-F))])
SMILES: C[C@@H](c1c[nH]c2cccc(F)c12)[C@@H]1NC(=O)[C@@H]2C[C@H](F)CN2C(=O)CNC(=O)[C@H](Cc2ccc(C(=O)O)cc2)NC(=O)[C@H](CC23CC(C2)C3)NC(=O)[C@H](Cc2ccc(-c3ccc(C(=O)O)cc3)cc2)NC(=O)[C@H]2C[C@@H](Cc3ccc(F)cc3)CN2C(=O)CNC(=O)[C@H](CCN)NC(=O)[C@H](CCC(N)=O)NC(=O)[C@H](Cc2cncnc2)NC(=O)C(C)(C)NC(=O)[C@H](Cc2c[nH]c3ccccc23)NC(=O)[C@H](CCC(=O)O)NC(=O)C(C)(C)NC1=O
B8: SEQ ID NO: 116 (peptide)
peptide: cyclo([Bip(4'-COOH)][Ala(4-Pyridazinyl)][Phe(4-COOH)]G[Pro(cis-4-F)][Trp(βS-Me,4-F)][Aib]EW[Aib][Ala(pyrimidin-5-yl)]Q[Dab]G[dPro(4R-Bzl(4-F))])
SMILES: C[C@@H](c1c[nH]c2cccc(F)c12)[C@@H]1NC(=O)[C@@H]2C[C@H](F)CN2C(=O)CNC(=O)[C@H](Cc2ccc(C(=O)O)cc2)NC(=O)[C@H](Cc2ccnnc2)NC(=O)[C@H](Cc2ccc(-c3ccc(C(=O)O)cc3)cc2)NC(=O)[C@H]2C[C@@H](Cc3ccc(F)cc3)CN2C(=O)CNC(=O)[C@H](CCN)NC(=O)[C@H](CCC(N)=O)NC(=O)[C@H](Cc2cncnc2)NC(=O)C(C)(C)NC(=O)[C@H](Cc2c[nH]c3ccccc23)NC(=O)[C@H](CCC(=O)O)NC(=O)C(C)(C)NC1=O
B9: SEQ ID NO: 120 (peptide)
peptide: cyclo([Bip(4'-COOH)][4Pal][Phe(4-COOH)]G[Pro(cis-4-F)][Trp(βS-Me,4-F)][Aib]EW[Aib][Ala(piperazin-1-yl)]Q[Dab]G[dPro(4R-Bzl(4-F))])
SMILES: C[C@@H](c1c[nH]c2cccc(F)c12)[C@@H]1NC(=O)[C@@H]2C[C@H](F)CN2C(=O)CNC(=O)[C@H](Cc2ccc(C(=O)O)cc2)NC(=O)[C@H](Cc2ccncc2)NC(=O)[C@H](Cc2ccc(-c3ccc(C(=O)O)cc3)cc2)NC(=O)[C@H]2C[C@@H](Cc3ccc(F)cc3)CN2C(=O)CNC(=O)[C@H](CCN)NC(=O)[C@H](CCC(N)=O)NC(=O)[C@H](CN2CCNCC2)NC(=O)C(C)(C)NC(=O)[C@H](Cc2c[nH]c3ccccc23)NC(=O)[C@H](CCC(=O)O)NC(=O)C(C)(C)NC1=O
B10: SEQ ID NO: 113 (peptide)
peptide: cyclo([Bip(4'-COOH)][4Pal][Phe(4-COOH)]G[Pro(cis-4-F)][Trp(βS-Me,4-F)][Aib]EW[Aib][2PyrimAla]Q[Dab]G[dPro(4R-Bzl(4-F))])
SMILES: C[C@@H](c1c[nH]c2cccc(F)c12)[C@@H]1NC(=O)[C@@H]2C[C@H](F)CN2C(=O)CNC(=O)[C@H](Cc2ccc(C(=O)O)cc2)NC(=O)[C@H](Cc2ccncc2)NC(=O)[C@H](Cc2ccc(-c3ccc(C(=O)O)cc3)cc2)NC(=O)[C@H]2C[C@@H](Cc3ccc(F)cc3)CN2C(=O)CNC(=O)[C@H](CCN)NC(=O)[C@H](CCC(N)=O)NC(=O)[C@H](Cc2ncccn2)NC(=O)C(C)(C)NC(=O)[C@H](Cc2c[nH]c3ccccc23)NC(=O)[C@H](CCC(=O)O)NC(=O)C(C)(C)NC1=O
B11: SEQ ID NO: 115 (peptide)
peptide: cyclo([Bip(4'-COOH)][4Pal][Phe(4-COOH)]G[Pro(cis-4-F)][Trp(βS-Me,4-F)][Aib]EW[Aib][Ala(4-Pyridazinyl)]Q[Dab]G[dPro(4R-Bzl(4-F))])
SMILES: C[C@@H](c1c[nH]c2cccc(F)c12)[C@@H]1NC(=O)[C@@H]2C[C@H](F)CN2C(=O)CNC(=O)[C@H](Cc2ccc(C(=O)O)cc2)NC(=O)[C@H](Cc2ccncc2)NC(=O)[C@H](Cc2ccc(-c3ccc(C(=O)O)cc3)cc2)NC(=O)[C@H]2C[C@@H](Cc3ccc(F)cc3)CN2C(=O)CNC(=O)[C@H](CCN)NC(=O)[C@H](CCC(N)=O)NC(=O)[C@H](Cc2ccnnc2)NC(=O)C(C)(C)NC(=O)[C@H](Cc2c[nH]c3ccccc23)NC(=O)[C@H](CCC(=O)O)NC(=O)C(C)(C)NC1=O

Starred links: 1 amine or outer side, 2 acyl side, 3 side chain; linkers in the order of their positions; H or OH if unused. Non-standard residues stand in square brackets, D forms with d. 3AzaTyrEtNAc = (2S)-3-[6-(2-acetamidoethoxy)-3-pyridyl]-2-amino-propanoic acid, CC(=O)NCCOc1ccc(C[C@H](N[*:1])C(=O)[*:2])cn1; 2PyrimAla = (2S)-2-amino-3-(pyrimidin-2-yl)propanoic acid, O=C([C@H](Cc1ncccn1)N[*:1])[*:2]; F4ptCCA = trans-4-[4-(2-amino-2-carboxyethyl)phenyl]cyclohexanecarboxylic acid; Phe(4-(cis-4-COOH-cHex)) = N[C@@H](Cc1ccc([C@H]2CC[C@@H](C(=O)O)CC2)cc1)C(=O)O; dPro(4R-(4-pyridylmethyl)) = O=C(O)[C@H]1C[C@@H](Cc2ccncc2)CN1; Ala(piperidin-4-yl) = O=C([C@H](CC1CCN([*:3])CC1)N[*:1])[*:2]; Trp(βS-Me,4-F) = C[C@@H](c1c[nH]c2cccc(F)c12)[C@H](N)C(=O)O; Bip(4'-COOH) = N[C@@H](Cc1ccc(-c2ccc(C(=O)O)cc2)cc1)C(=O)O; Ala(1-bicyclo(1.1.1)pentyl) = N[C@@H](CC12CC(C1)C2)C(=O)O; dPro(4R-Bzl(4-F)) = O=C(O)[C@H]1C[C@@H](Cc2ccc(F)cc2)CN1; Ala(piperazin-1-yl) = N[C@@H](CN1CCNCC1)C(=O)O; Ala(pyrimidin-5-yl) = N[C@@H](Cc1cncnc1)C(=O)O; Phe(4-COOH) = N[C@@H](Cc1ccc(C(=O)O)cc1)C(=O)O; Ala(4-Pyridazinyl) = N[C@@H](Cc1ccnnc1)C(=O)O; Ala(2-pyrazinyl) = N[C@@H](Cc1cnccn1)C(=O)O; Pro(cis-4-F) = O=C(O)[C@@H]1C[C@H](F)CN1; Ala(4-THP) = N[C@@H](CC1CCOCC1)C(=O)O; 4Pal = N[C@@H](Cc1ccncc1)C(=O)O; d(αMeS) = C[C@@](N)(CO)C(=O)O; Dab = NCC[C@H](N)C(=O)O; Aib = CC(C)(N)C(=O)O

The assay has as its target Recombinant human IL-1β (BioLegend 579404) (human, UniProt P01584 117-269). Put plainly: cell-based or functional assay.
With B1, the “MRC5 IC50” value was determined as 0.035 nM. In the case of B2, the “MRC5 IC50” value was 0.016 nM. For the molecule B3, the “MRC5 IC50” value came to 0.027 nM. For the molecule B4, the “MRC5 IC50” value was found to be 0.016 nM. The value for B5 was 0.072 nM.

As to B6, the “MRC5 IC50” value stood at 0.018 nM.

On to B7, for which the “MRC5 IC50” value is 0.022 nM. Turning to B8, the “MRC5 IC50” value was found to be 0.04 nM. cyclo([F4ptCCA][4Pal][Phe(4-COOH)]G[Pro(cis-4-F)][Trp(βS-Me,4-F)][Aib]EW[Aib][Ala(pyrimidin-5-yl)]Q[Dab]G[dPro(4R-Bzl(4-F))]) [SEQ ID NO: 114]: the “MRC5 IC50” value turned out to be 0.035 nM. In the case of B9, the “MRC5 IC50” value worked out at 0.014 nM. In the case of B10, the “MRC5 IC50” value came to 0.018 nM.

With B11, the “MRC5 IC50” value was found to be 0.023 nM.

(Values after patent publication US20260242419A1, “A CYCLIC PEPTIDE FOR TRAPPING INTERLEUKIN-1 BETA” (Merck Sharp & Dohme LLC, priority 2023, published 2026).)
